From article PMC5523735
Like-named read-outs stand apart in the source and are kept apart here.

Assays:
[1] = proBNP/BNP ratio in NRVM medium; details: glycan lost
[2] = proBNP/BNP ratio in human iPS-CM medium; details: glycan lost; control: control oligo
[3] = gel filtration: proBNP peak relative to mature BNP peak; details: glycan lost; control: WT-proBNP
[4] = proBNP/BNP ratio in cardiac fibroblast medium; details: glycan lost; control: WT-proBNP
[5] = control: control oligo, WT-proBNP

Question: With “proBNP (prohormone for brain natriuretic peptide): T48A” as the substance, how does the other (O-glycosylation other at T48) read?
Answer: increases

Question: Which other (O-glycosylation other at T48) does the source give for “proBNP (prohormone for brain natriuretic peptide): non-glyco versus T48glyco (only Thr48 preserved, other 6 sites Ala)” here?
Answer: increases

Question: For “proBNP (prohormone for brain natriuretic peptide): non-glyco versus T71glyco (only Thr71 preserved, other 6 sites Ala)”, which other (O-glycosylation other at T71) is on record?
Answer: increases

Question: Which other (O-glycosylation other at S37) does the source give for “proBNP (prohormone for brain natriuretic peptide): T48/T71glyco (T36A, S37A, S44A, S53A, T58A)” here?
Answer: increases

Question: What about the other (O-glycosylation other at S44) of the same substance?
Answer: increases

Question: And the other (O-glycosylation other at S53)?
Answer: increases

Question: What about the other (O-glycosylation other at T36) of the same substance?
Answer: increases

Question: And the other (O-glycosylation other at T58)?
Answer: increases

Question: Which “other: proteolytic processing” value ([1]; control: WT-proBNP) does the source give for “human proBNP (prohormone for brain natriuretic peptide): T48/T71glyco” here?
Answer: increases

Question: For “proBNP (prohormone for brain natriuretic peptide): GALNT1 or GALNT2 siRNA knockdown”, which other (O-glycosylation other at T48) is on record?
Answer: increases

Question: And the other (O-glycosylation other at T71)?
Answer: increases

Question: With “proBNP (prohormone for brain natriuretic peptide): T71A (cardiac fibroblasts)” as the substance, how does the other (O-glycosylation other at T71) read?
Answer: increases

Question: For “human proBNP (prohormone for brain natriuretic peptide): GALNT1 siRNA”, which “other: proteolytic processing” value [1, 5] is on record?
Answer: increases

Question: What about the “other: proteolytic processing” value [2] of the same substance?
Answer: increases

Question: With “human proBNP (prohormone for brain natriuretic peptide): T48A” as the substance, how does the “other: proteolytic processing” value [3] read?
Answer: increases

Question: And the “other: proteolytic processing” value ([1]; control: WT-proBNP)?
Answer: increases

Question: And the “other: proteolytic processing” value [4]?
Answer: increases

Question: For “human proBNP (prohormone for brain natriuretic peptide): T71A”, which “other: proteolytic processing” value [3] is on record?
Answer: increases

Question: What about the “other: proteolytic processing” value ([1]; control: WT-proBNP) of the same substance?
Answer: increases

Question: What about the “other: proteolytic processing” value [4] of the same substance?
Answer: increases

Question: For “proBNP (prohormone for brain natriuretic peptide): T48A/T71A”, which other (O-glycosylation other at T48) is on record?
Answer: increases

Question: And the other (O-glycosylation other at T71)?
Answer: increases

Question: With “human proBNP (prohormone for brain natriuretic peptide): GALNT2 siRNA” as the substance, how does the “other: proteolytic processing” value [1, 5] read?
Answer: increases

Question: What about the “other: proteolytic processing” value [2] of the same substance?
Answer: increases

Question: With “proBNP (prohormone for brain natriuretic peptide): T71A” as the substance, how does the other (O-glycosylation other at T71) read?
Answer: increases

Question: With “human proBNP (prohormone for brain natriuretic peptide): non-glyco” as the substance, how does the “other: proteolytic processing” value ([1]; control: WT-proBNP) read?
Answer: increases

Question: Which other (O-glycosylation other at T48) does the source give for “proBNP (prohormone for brain natriuretic peptide): T48A (cardiac fibroblasts)” here?
Answer: increases

Question: Which “other: proteolytic processing” value ([1]; control: WT-proBNP) does the source give for “human proBNP (prohormone for brain natriuretic peptide): T48A/T71A” here?
Answer: increases
